Values of other authors in publication PMC10925690.

Experiments:
[1] = molecular target: FcγRIIIa F158 (Homo sapiens) (UniProt P08637); assay: SPR; conditions: cited from earlier work
[2] = molecular target: FcγRIIIa V158 (Homo sapiens) (UniProt P08637); assay: SPR; conditions: cited from earlier work
Chain of FcγRIIIa V158 (Homo sapiens) (P08637 17-254): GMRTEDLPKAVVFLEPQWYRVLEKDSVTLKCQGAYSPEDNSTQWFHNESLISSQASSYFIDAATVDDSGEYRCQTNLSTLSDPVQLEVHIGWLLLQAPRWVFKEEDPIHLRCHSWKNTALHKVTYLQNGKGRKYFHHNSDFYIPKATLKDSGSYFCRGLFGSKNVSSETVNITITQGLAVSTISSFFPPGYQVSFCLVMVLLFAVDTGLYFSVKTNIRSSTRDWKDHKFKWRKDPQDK

Chain of FcγRIIIa F158 (Homo sapiens) (P08637 17-254): as above

IgG1 Fc Fc (from UniProt P01857)
Kd [1]: 2500 nM | Kd [2]: 400 nM
